Changes are numbered by the printed parent chain.
Tests used:
Details in all cases: protein: recombinant; tags: none after Ulp1 cleavage of His-Smt3; label: 32P (T4 PNK)
[1] = molecular target: T1, hTERB1-MYB triple mutant (Homo sapiens, UniProt Q8NA31 666-719, A712K;H713D;H716R); experiment: EMSA; 2-8 uM protein, 150 nM probe; 50 mM Tris-HCl pH 8.0, 6.5% glycerol, 20 mM NaCl, 5 mM DTT, 150 nM probe, 10 ul, 30 min on ice; 4-20% TBE native gel
T1 sequence: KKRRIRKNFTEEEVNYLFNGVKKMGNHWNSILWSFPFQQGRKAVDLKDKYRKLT

[2] = molecular target: T2, hTERB1-MYB H716R (Homo sapiens, UniProt Q8NA31 666-719, H716R); experiment: EMSA; 150 nM probe; 50 mM Tris-HCl pH 8.0, 6.5% glycerol, 20 mM NaCl, 5 mM DTT, 150 nM probe, 10 ul, 30 min on ice; 4-20% TBE native gel
T2 sequence: T1 sequence with K47A, D48H

[3] = molecular target: T3, hTERB1-MYB A712K (Homo sapiens, UniProt Q8NA31 666-719, A712K); experiment: as above
T3 sequence: T1 sequence with D48H, R51H

[4] = molecular target: T4, hTERB1-MYB H713D (Homo sapiens, UniProt Q8NA31 666-719, H713D); experiment: as above
T4 sequence: T1 sequence with K47A, R51H

Measured: binding result

B1: dsDNA_telo_8-mer (TTAGGG)8 (dsDNA)
DNA 1: TTAGGGTTAGGGTTAGGGTTAGGGTTAGGGTTAGGGTTAGGGTTAGGG
DNA 2: CCCTAACCCTAACCCTAACCCTAACCCTAACCCTAACCCTAACCCTAA
no binding: all assays above

— publication PMC8867601, “The TERB1 MYB domain suppresses telomere erosion in meiotic prophase I”
